In general, stoichiometry N refers to the number of molecules, sites or subunits per partner or assembly.

For series [1], the target named is MOR (Modulator Of Repression) of bacteriophage TP901-1, wild type, untagged (bacteriophage TP901-1) (UniProt O48504). The experiment in a line: cross-linking; 0.05% glutaraldehyde, room temperature, 0-60 min, 20 mM HEPES pH 7.5, 200 mM NaCl (100 mM salt by p-0027); CI about 20 uM, MOR 4 or 20 uM, alone or together; SDS PAGE, coomassie.
Series [2] deals with the molecule itself. The description is as above.
Series [3] has as its target T1, CI-NTD89-His6 (CI N-terminal domain 1-80 plus linker 81-89) (bacteriophage TP901-1, UniProt O48503 1-89).
T1 construct: CI repressor, lactococcal bacteriophage TP901-1, N-terminal domain (1-80) and flexible linker (81-89); also called CI-NTD_(1-89); source: E. coli BL21 (pET30a(+)), purified (His-Trap, SEC)
T1 sequence (looked up): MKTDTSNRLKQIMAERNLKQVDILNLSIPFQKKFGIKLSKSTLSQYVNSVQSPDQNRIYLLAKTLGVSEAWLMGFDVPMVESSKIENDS
The experiment in a line: SEC; Superdex 75 Prep Grad, 20 mM Tris, 100 mM NaCl, pH 7.4; CI-NTD89 and MOR mixed in about 4:1 molar ratio. The settings on record: both partners purified. For orientation: SEC sorts molecules by how far they enter the pores of the column.

For “MOR (Modulator Of Repression) of bacteriophage TP901-1, wild type, untagged (from UniProt O48504 1-72) (natural protein)”, in series [1], the stoichiometry N is 2.

B1: CI repressor of bacteriophage TP901-1, wild type, untagged (natural protein, UniProt O48503 1-180, looked up)
chain: MKTDTSNRLKQIMAERNLKQVDILNLSIPFQKKFGIKLSKSTLSQYVNSVQSPDQNRIYLLAKTLGVSEAWLMGFDVPMVESSKIENDSENIEETITVMKKLEEPRQKVVLDTAKIQLKEQDEQNKVKQIEDYRLSDEYLEEQISKASAYGGGQLNDNDKEFFKRLLKNTLKEKIDKGDL
notes: CI repressor, lactococcal bacteriophage TP901-1; also called native CI repressor; full length CI; source: E. coli AJ159 (cI in expression vector pUHE23-2), in cell extract; also purified (eluted from the DNA pellet with 1 M NaCl; pooled fractions from Superdex gel filtration)
Take B1: the “stoichiometry N” value in series [2] was 2.

B2: MOR (1-72) released from GST-MOR by thrombin (natural protein, bacteriophage TP901-1, UniProt O48504 1-72, looked up)
chain: MSYDYSSLLGKITEKCGTQYNFAIAMGLSERTVSLKLNDKVTWKDDEILKAVHVLELNPQDIPKYFFNAKVH
notes: MOR (Modulator Of Repression), lactococcal bacteriophage TP901-1, residues 1-72; also called cleaved MOR; source: E. coli BL21 (pGEX4-2, GST-MOR), purified (GST-Trap, thrombin cleavage on the column, SEC)
Turning to B2, the “stoichiometry N” value in series [3] stood at 1.

Source of the values: publication PMC7250872, “Repression of the lysogenic PR promoter in bacteriophage TP901-1 through binding of a CI-MOR complex to a composite OM-OR operator” (Scientific Reports, 2020).
